Reference: US20240343803A1 (SHANDONG SIMCERE BIOPHARMACEUTICAL, published 2024)
Numbering of substitutions follows the chain as printed.

T1: human PVRIG-mFc protein (Acro, PVG-H5253) (human, UniProt Q6DKI7 41-171, limits assumed)
T1 construct: extracellular domain; Bought protein; also called PVRIG-ECD-mFc; not shown: mouse Fc tag of the bought protein
T1 sequence (looked up): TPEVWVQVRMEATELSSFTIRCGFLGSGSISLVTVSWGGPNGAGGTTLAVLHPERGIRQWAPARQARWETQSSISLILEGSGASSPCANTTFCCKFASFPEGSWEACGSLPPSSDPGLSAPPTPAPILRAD

T2: human PVRIG-his (AcroBiosystems, Cat NO. PVG-H52H4) (human, UniProt Q6DKI7 41-171, limits assumed)
T2 construct: also called human PVRIG protein
T2 sequence (looked up): T1 sequence (looked up)

T3: human PVRIG-mFc protein (Acro, PVG-H5253) (human, UniProt Q6DKI7 41-171, limits assumed)
T3 construct: bought protein
T3 sequence (looked up): T1 sequence (looked up)

T4: Fusion protein of extracellular domain of human TIGIT and mouse IgG2a Fc fragment (human TIGIT ECD-mFc) (human)
T4 construct: The entry includes the signal peptide (limits not recoverable) and the mouse IgG2a Fc
T4 chain: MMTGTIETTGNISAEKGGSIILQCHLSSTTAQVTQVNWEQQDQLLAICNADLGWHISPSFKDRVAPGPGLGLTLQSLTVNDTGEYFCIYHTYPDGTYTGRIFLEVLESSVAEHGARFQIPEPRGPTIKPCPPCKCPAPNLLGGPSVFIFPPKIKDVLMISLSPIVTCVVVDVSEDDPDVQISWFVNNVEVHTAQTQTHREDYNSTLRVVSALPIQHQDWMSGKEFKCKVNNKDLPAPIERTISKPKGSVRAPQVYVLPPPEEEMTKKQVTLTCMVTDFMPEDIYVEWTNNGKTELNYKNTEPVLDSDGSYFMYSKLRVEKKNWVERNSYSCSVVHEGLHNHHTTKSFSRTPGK

T5: Full-length human TIGIT on CHO-K1 cells (CHO-K1 human TIGIT) (human, UniProt Q495A1 22-244)
T5 construct: NCBI XP_024309156.1; the entry includes the signal peptide (limits not recoverable); The strain (high, medium, low) is named under assay; also called high expression strain 1D2; medium expression strain 2D10
T5 sequence: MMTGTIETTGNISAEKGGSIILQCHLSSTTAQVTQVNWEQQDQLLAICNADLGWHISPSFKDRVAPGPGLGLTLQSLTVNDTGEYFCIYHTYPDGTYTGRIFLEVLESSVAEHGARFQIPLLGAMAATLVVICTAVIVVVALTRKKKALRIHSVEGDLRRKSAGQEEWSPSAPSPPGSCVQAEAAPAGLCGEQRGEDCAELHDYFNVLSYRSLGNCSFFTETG

B1: PVRIG-A105-H3a (Fc fusion)
chain: EVQLVESGGGLVQPGGSLRLSCAASGRTFDRHTMTWFRQAPGKEREFVATASRIPGDTYYVDSVKGRFTISRDNAKNSVYLQMNSLRAEDTAVYYCAATSAYSSEVDSYEKGSWYDNWGQGTMVTVSS
notes: VHH-human IgG1 Fc format is stated for the parental VHH antibodies; not restated for the humanized variants; also called A105.VH3a; not shown: human IgG1 hinge-CH2-CH3 (Fc)
B2: PVRIG-A105-H5 (Fc fusion)
chain: B1 chain with V79L, S103C, S108C, T122I, M123Q
notes: VHH-human IgG1 Fc format is stated for the parental VHH antibodies; not restated for the humanized variants; also called A105.VH5; not shown: human IgG1 hinge-CH2-CH3 (Fc)
B3: PVRIG-A105-H4 (Fc fusion)
chain: B1 chain with V61S, D62H, V79L, S103C, S108C
notes: VHH-human IgG1 Fc format is stated for the parental VHH antibodies; not restated for the humanized variants; also called A105.VH4; not shown: human IgG1 hinge-CH2-CH3 (Fc)
B4: SRF813-hIgG1 (antibody, V domains shown)
VH: QVQLVQSGAEVKKPGSSVKVSCKASGGTFSSAAISWVRQAPGQGLEWMGNIIPIVGIANYAQKFQGRVTITADESTSTAYMELSSLRSEDTAVYYCARDTGRGYTRHFWFDPWGQGTLVTVSS
VL: DIQMTQSPSSLSASVGDRVTITCRASQSISSYLNWYQQKPGKAPKLLIYAASSLQSGVPSRFSGSGSGTDFTLTISSLQPEDFATYYCQQSDILYTFGGGTKVEIK
notes: positive control; human IgG1 format
B5: PVRIG-A11 (Fc fusion)
chain: QLQLVESGGGLVQPGGSLRLSCAASGFTDDYYAIGWFRQAPGKEREGVSCISGSGGSTNYEDSVKGRFAISRDNAKNMVYLQMNDLKPEDTAVYYCAADPFWSAPCTGHNDRYFDVWGQGTLVTVSS
notes: heavy chain antibody VHH-hinge-CH2-CH3, human IgG1 constant part; not shown: human IgG1 hinge-CH2-CH3
B6: COM701-hIgG1 (antibody, V domains shown)
VH: QVQLVQSGAEVKKPGASVKVSCKASGYTFTDYNINWVRQAPGQGLEWMGYIYPYIGGSGYAQKFQGRVTMTRDTSTSTVYMELSSLRSEDTAVYYCAREDKTARNAMDYWGQGTLVTVSS
VL: DIQMTQSPSSLSASVGDRVTITCRVSENIYSNLAWYQQKPGKAPKLLIYEATNLAEGVPSRFSGSGSGTDFTLTISSLQPEDFATYYCQHFWGTPYTFGQGTKLEIK
notes: as for B4
B7: TIGIT-002-H2L1 (antibody, V domains shown)
VH: EVQLQESGPGLVKPSETLSLTCAVSGYSITSDSWNWIRQPPGKKLEWIGYISYSGNTYYNPSLKSRVTISRDTSKNQFSLKLSSVTAADTAVYYCARLDFSNYGGAVDYWGQGTTVTVSS
VL: DIVMTQTPLSLSVTPGQPASISCKASQNVRTAVAWYLQKPGQSPQLMIYSASYRYTGVPDRFSGSGSGTDFTLKISRVEAEDVGVYYCQQYYTTPWTFGGGTKVEIK
notes: Humanized anti-TIGIT antibody

How the values were obtained:
[1] = target: T1, human PVRIG-mFc protein (Acro, …); experiment: FACS blocking of PVRIG-mFc binding to CHO-K1-CD112 cells; competitor CD112
In short: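 Zombie violet-stained CHO-K1-CD112 cells were added for 30 min at 4° C, then PE goat anti-mouse IgG Fc (1:250) was applied and mean fluorescence intensity read on a BD Canto II. Curves were fitted with four-parameter logistic models in GraphPad Prism 9. IC50 and curve AUC were reported as percentages of the reference antibody values.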

[2] = target: T2, human PVRIG-his (AcroBiosystems, Cat …); experiment: SPR (BIAcore), antibody captured on Protein A chip, human PVRIG-His analyte
Method: Biacore was used to detect the specific binding between anti-PVRIG antibody and human PVRIG protein. Protein A chip was used in the BIAcore assay. The time required for the chip to capture the diluted antibody and saturate the binding antigen to reach Rₘₐₓ (Maximum binding capacity, 50 RU) was measured by manual run. […] The affinity of antibody for antigen was measured by multi-cycle kinetics. In each cycle, the antibodies were injected prior to the injection of gradient concentraions of PVRIG proteins allowing the occurrence of antibody-antigen association and dissociation After each cycle, the Protein A chip was regenerated by Glycine, pH 1.5 (to remove the proteins on the chip). The affinity of antibody for antigen was calculated by BIAcore T200 analysis software.

[3] = target: T3, human PVRIG-mFc protein (Acro, …); experiment: FACS competition, PVRIG-mFc binding to CHO-K1-CD112 cells, competitor CD112 on cells
Method: A working solution of human PVRIG-mFc protein (Acro, PVG-H5253) prepared with staining buffer, 1 μg/mL (four-fold concentration), was added into a 96-well plate (50 μL PVRIG-mFc working solution per well). […] The diluted antibodies were added to the well containing 50 μL of PVRIG-mFc. The plate was placed on a microplate shaker at 400 rpm for 1 minute to fully mix the antibodies and PVRIG-mFc proteins, and then incubated at 4° C. for 30 minutes. After the incubation, the cell suspension prepared above (100 μL) was added into the wells, gently mixed with the pipette tip and incubated at 4° C. for 30 minutes. After the incubation, the cells were washed twice with staining buffer (200 μL per well) and centrifuged at 350×g for 5 minutes to discard the supernatant. The PE goat anti-mouse IgG Fc antibody (Biolegend, 405337) was diluted 250 times with staining buffer, added into the washed wells (100 μL per well), mixed well, and stained at 4° C. for 30 minutes. After staining, the cells were washed twice with staining buffer, finally resuspended with 200 μL staining buffer and analyzed by flow cytometry (BD, Canto II). The weaker the fluorescence signal, the stronger the ability of the antibodies blocks the binding of CHO-K1 human CD112 cells to the PVRIG-mFc protein. An antibody binding curve was drawn with concentration of antibodies as the abscissa and the corresponding Mean Fluorescence Intensity (MFI) as the ordinate. The IC50 value of the antibodies and the AUC value of the binding curve were calculated by using a Four Parameter Logistic Fit (GraphPadPrism9). The smaller the IC50 value and AUC value, the stronger the ability of the antibodies competes with CHO-K1-CD112 cells to bind to human PVRIG-mFc protein. […] […] The smaller the percentage value, the stronger the blocking ability of the antibodies.

[4] = target: T6, Fusion protein of extracellular domain of human TIGIT and human IgG1 Fc fragment (human TIGIT ECD-hFc) (human); experiment: blocking of TIGIT ECD-hFc binding to CHO-K1 CD155 cells
T6 construct: The entry includes the signal peptide (limits not recoverable) and the human IgG1 Fc
In short: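 Cell-based ELISA on CHO-K1 CD155 cells, cultured overnight, fixed and blocked with 5% skim milk-PBS. Antibodies were premixed for 0.5 h with human TIGIT ECD-hFc (working concentration 30 ng/mL), then added and held at 37° C for 1.5-2 h. Bound TIGIT was detected with HRP secondary antibody (1:5000, 37° C, 1 h) and TMB, read as OD450 nm. IC50 came from the inhibition curves.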

[5] = target: T4, Fusion protein of extracellular domain …; experiment: ELISA, human TIGIT ECD-mFc
Method: (§1) After discarding the coating solution, the plate was added with 5% skim milk powder (Sangon Biotech, CAT #A600669-0250)-PBS, 250 μL/well, and incubated at 37° C. for 2-4 hours. […] The enzyme-labeled plate was then washed with 0.05% Tween 20-PBS for 3 times on the Microplate Washer, added with tested antibodies diluted to 13 nM with 1% BSA (diluted by 3-fold serial dilution for 12 concentration points), 50 μL/well, and incubated at 37° C. for 1.5-2 hours. The plate was washed with 0.05% Tween 20-PBS for 3 times on the Microplate Washer, then added with HRP enzyme-labeled antibodies (Merck, CAT #AP113P) diluted with 1% BSA (Sangon Biotech, CAT #A500023-0100)-PBS at a dilution ratio of 1:5000, 50 μL/well, and incubated at 37° C. for 1 hour. After washing 3 times with 0.05% Tween 20-PBS on the Microplate Washer, the plate was added with TMB chromogenic solution (KPL, CAT #52-00-03), 50 μL/well, and incubated at room temperature for 7-10 minutes. 1M HCL, 50 μL/well, was then added into the plate to terminate the reaction, and the OD450 nm was read by a microplate reader (Biotek, Powerwave HT). […] (b) The binding activity of anti-TIGIT chimeric antibodies to CHO-K1 human TIGIT (cells with high, medium and low expression levels) and CHO-KI cynomolgus monkey TIGIT detected by FACS.
(§2) The affinity of the above humanized antibodies with human TIGIT ECD-His is detected by BIAcore, and with reference to the methods of Example 4 (a), (b), and (d), the binding activity of the above humanized antibodies to human TIGIT ECD-mFc, CHO-K1 human TIGIT, CHO-K1 cynomolgus monkey TIGIT and cynomolgus monkey TIGIT ECD-mFc, and the effect of the humanized antibodies blocking the binding between human TIGIT ECD-mFc and CHO-K1 CD155 are detected, the results are shown in Table 18.

[6] = target: T7, Fusion protein of extracellular domain of cynomolgus monkey TIGIT and mouse IgG2a Fc fragment (cynomolgus … (cynomolgus monkey)); experiment: ELISA, cynomolgus monkey TIGIT ECD-mFc
T7 construct: The entry includes the signal peptide (limits not recoverable) and the mouse IgG2a Fc
Method: as §1, §2

[7] = target: T8, Full-length cynomolgus monkey TIGIT on CHO-K1 cells (CHO-K1 cynomolgus monkey TIGIT) (cynomolgus monkey); experiment: cell binding, CHO-K1 cynomolgus monkey TIGIT
T8 construct: NCBI XP_015300911.1
Method: (§3) The collected cells were washed once with PBS (Hyclone, CAT #SH30256), resuspended to 2×10⁵/50 μL with 1% BSA-PBS. The antibodies were diluted to 80 nM with 1% BSA-PBS (diluted by 3-fold serial dilution for 12 concentration points). The 50 μL cells were then mixed with 50 μL diluted antibodies, and then incubated at 4° C. for 60 minutes. […] After washing twice with PBS, the cell samples were resuspended with 1% BSA-PBS, 100 μL/well and then analyzed by flow cytometry (BD, Canto II). […] [0298] (c) The effect of anti-TIGIT chimeric antibodies blocking the interaction between Bio-CD155-His and CHO-K1 human TIGIT high expression cell strains detected by FACS
as §2

[8] = target: T5, Full-length human TIGIT on CHO-K1 cells …; experiment: cell binding, CHO-K1 human TIGIT high expression strain
Method: as §3, §2

T7 sequence (chain, as listed by the source limits assumed): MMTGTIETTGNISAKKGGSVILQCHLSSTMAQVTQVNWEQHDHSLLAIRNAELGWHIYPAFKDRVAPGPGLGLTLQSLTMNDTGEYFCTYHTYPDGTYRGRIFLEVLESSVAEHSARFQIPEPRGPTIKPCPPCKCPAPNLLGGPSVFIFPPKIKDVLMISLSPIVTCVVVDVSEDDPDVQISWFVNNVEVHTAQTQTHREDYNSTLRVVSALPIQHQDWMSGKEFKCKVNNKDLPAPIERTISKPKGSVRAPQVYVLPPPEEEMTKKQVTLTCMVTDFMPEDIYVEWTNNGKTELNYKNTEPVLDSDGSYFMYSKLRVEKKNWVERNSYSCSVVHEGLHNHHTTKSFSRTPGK
T6 sequence (chain, as listed by the source limits assumed): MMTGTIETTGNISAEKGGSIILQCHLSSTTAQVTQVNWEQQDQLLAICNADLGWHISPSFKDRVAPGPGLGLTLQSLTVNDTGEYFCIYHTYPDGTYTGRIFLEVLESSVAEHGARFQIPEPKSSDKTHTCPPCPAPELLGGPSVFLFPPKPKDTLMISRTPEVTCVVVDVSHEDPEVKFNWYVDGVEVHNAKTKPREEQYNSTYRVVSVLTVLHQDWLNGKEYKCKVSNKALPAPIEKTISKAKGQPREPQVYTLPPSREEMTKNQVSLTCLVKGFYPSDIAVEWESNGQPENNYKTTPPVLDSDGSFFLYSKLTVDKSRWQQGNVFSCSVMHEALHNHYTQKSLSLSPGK
T8 sequence (chain, as listed by the source limits assumed): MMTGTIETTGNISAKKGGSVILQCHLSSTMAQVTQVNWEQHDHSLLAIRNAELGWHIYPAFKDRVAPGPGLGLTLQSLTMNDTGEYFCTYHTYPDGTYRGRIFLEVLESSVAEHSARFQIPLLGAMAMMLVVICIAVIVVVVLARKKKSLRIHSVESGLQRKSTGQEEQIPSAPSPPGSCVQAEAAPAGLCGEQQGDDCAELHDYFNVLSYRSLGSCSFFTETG

| Binder | % IC50 to COM701-hIgG4 [1] [%] | % IC50 to SO35-hIgG1 [1] [%] | % IC50 to parental Ab [1] [%] | Kd [2] [pM] | koff [2] [s⁻¹] | kon [2] [M⁻¹ s⁻¹] | other results |
| --- | --- | --- | --- | --- | --- | --- | --- |
| B1 | 3060 | 2590 | 2930 |  |  |  | % AUC to COM701-hIgG4 [1]: 3530%; % AUC to SO35-hIgG1 [1]: 2040%; % AUC to parental Ab [1]: 3100% |
| B2 | 110 | 93.4 | 106 |  |  |  |  |
| B3 | 110 | 93.2 | 105 |  |  |  | % AUC to COM701-hIgG4 [1]: 112%; % AUC to SO35-hIgG1 [1]: 64.6%; % AUC to parental Ab [1]: 98.4% |
| B4 |  |  |  | 278 | 0.000317 | 1.14e+06 |  |
| B5 |  |  |  | 106 | 0.00338 | 3.18e+07 | % AUC to COM701-hIgG4 [3]: 78%; % AUC to SRF813-hIgG1 [3]: 58.9%; % IC50 to COM701-hIgG4 [3]: 62.8%; % IC50 to SRF813-hIgG1 [3]: 64.1% |
| B6 |  |  |  | 319 | 0.000651 | 2.04e+06 |  |
| B7 |  |  |  |  |  |  | IC50 [4]: 646 pM; EC50 [5]: 18.8 pM; EC50 [6]: 87.7 pM; EC50 [7]: 181 pM; EC50 [8]: 46.8 pM |
